# B1: MBP-FOLDON-ATG9A (692–839) [bacteriophage T4 | human] / TSF-ATG13^HORMA:GST-ATG101 complex, wild type [human] (parent complex)
# chain 1: QLQSLVLSEYASTEMSLHALYMHQLHKQQAQAEPERHVWHRRESDESGESAPDEGGEGARAPQSIPRSASYPCAAPRPGAPETTALHGGFQRRYGGITDPGTVPRVPSHFSRLPLGGWAEDGQSASRHPEPVPEEGSEDELPPQVHKV
# chain 2: METDLNSQDRKDLDKFIKFFALKTVQVIVQARLGEKICTRSSSSPTGSDWFNLAIKDIPEVTHEAKKALAGQLPAVGRSMCVEISLKTSEGDSMELEIWCLEMNEKCDKEIKVSYTVYNRLSLLLKSLLAITRVTPAYRLSRKQGHEYVILYRIYFGEVQLSGLGEGFQTVRVGTVGTPVGTITLSCAYRINLAFMS
# chain 3: MNCRSEVLEVSVEGRQVEEAMLAVLHTVLLHRSTGKFHYKKEGTYSIGTVGTQDVDCDFIDFTYVRVSSEELDRALRKVVGEFKDALRNSGGDGLGQMSLEFYQKKKSRWPFSDECIPWEVWTVKVHVVALATEQERQICREKVGEKLCEKIINIVEVMNRHEYLPKMPTQSEVDNVFDTGLRDVQPYLYKISFQITDALGTSVTTTMRRLIKDTLAL
# Variants of: B1
# Assay: GST pull-down; n = 3; read off a plot
row,Variant,ratio to parent
1,chain 2 METDLNSQDRKDLDKFIKFFALKTVQVIVQARLGEKICTRSSSSPTGSDWFNLAIKDIPEVTHEAKKALAGQLPAVGRSMCVEISLKTSEGDSMELEIWCLEMNEKCDKEIKVSDTVYNRLSLLLKSLLAITRVTPAYRLSRKQGHEYVILYRIYFGEVQLSGLGEGFQTVRVGTVGTPVGTITLSCAYRINLAFMS [chain 2 Y115D],~0.97
2,chain 2 METDLNSQDRKDLDKFIDFFALKTVQVIVQARLGEKICTRSSSSPTGSDWFNLAIKDIPEVTHEAKKALAGQLPAVGRSMCVEISLKTSEGDSMELEIWCLEMNEKCDKEIKVSYTVYNRLSLLLKSLLAITRVTPAYRLSRKQGHEYVILYRIYFGEVQLSGLGEGFQTVRVGTVGTPVGTITLSCAYRINLAFMS [chain 2 K18D],~0.11
3,chain 2 METDLNSQDRKDLDKDIKFFALKTVQVIVQARLGEKICTRSSSSPTGSDWFNLAIKDIPEVTHEAKKALAGQLPAVGRSMCVEISLKTSEGDSMELEIWCLEMNEKCDKEIKVSYTVYNRLSLLLKSLLAITRVTPAYRLSRKQGHEYVILYRIYFGEVQLSGLGEGFQTVRVGTVGTPVGTITLSCAYRINLAFMS [chain 2 F16D],~0.1
4,chain 2 METDLNSQDRKDLDKFIKDFALKTVQVIVQARLGEKICTRSSSSPTGSDWFNLAIKDIPEVTHEAKKALAGQLPAVGRSMCVEISLKTSEGDSMELEIWCLEMNEKCDKEIKVSYTVYNRLSLLLKSLLAITRVTPAYRLSRKQGHEYVILYRIYFGEVQLSGLGEGFQTVRVGTVGTPVGTITLSCAYRINLAFMS [chain 2 F19D],~0.02
5,chain 2 METDLNSQDRKDLDKFIKFFALKTVQVIVQARLGEKICTRSSSSPTGSDWFNLAIKDIPEVTHEAKKALAGQLPAVGRSMCVEISLKTSEGDSMELEIWCLEMNEKCDKEIKVSYTVDNRLSLLLKSLLAITRVTPAYRLSRKQGHEYVILYRIYFGEVQLSGLGEGFQTVRVGTVGTPVGTITLSCAYRINLAFMS [chain 2 Y118D],~0.03
6,chain 2 METDLNSQDRKDLDDFIKFFALKTVQVIVQARLGEKICTRSSSSPTGSDWFNLAIKDIPEVTHEAKKALAGQLPAVGRSMCVEISLKTSEGDSMELEIWCLEMNEKCDKEIKVSYTVYNRLSLLLKSLLAITRVTPAYRLSRKQGHEYVILYRIYFGEVQLSGLGEGFQTVRVGTVGTPVGTITLSCAYRINLAFMS [chain 2 K15D],~0.26
7,chain 2 METDLNSQDRKDLDKFIKFFALKTVQVIVQARLGEKICTRSSSSPTGSDWFNLAIKDIPEVTHEAKKALAGQLPAVGRSMCVLISLKTSEGDSMELEIWCLEMNEKCDKEIKVSYTVYNRLSLLLKSLLAITRVTPAYRLSRKQGHEYVILYRIYFGEVQLSGLGEGFQTVRVGTVGTPVGTITLSCAYRINLAFMS [chain 2 E83L],~0.88
8,chain 2 METDLNSQDRKDLDKFIKFFALKTVQVIVQARLGEKICTRSSSSPTGSDDFNLAIKDIPEVTHEAKKALAGQLPAVGRSMCVEISLKTSEGDSMELEIWCLEMNEKCDKEIKVSYTVYNRLSLLLKSLLAITRVTPAYRLSRKQGHEYVILYRIYFGEVQLSGLGEGFQTVRVGTVGTPVGTITLSCAYRINLAFMS [chain 2 W50D],~0.02
9,"chain 3 MNCRSEVLEVSVEGRQVEEAMLAVLHTVLLHRSTGKFHYKKEGTYSIGTVGTQDVDCDFIDFTYVRVSSEELDRALRKVVGEFKDALRNSGGDGLGQMSLEFYQKKKSRDPDSDECIPWEVWTVKVHVVALATEQERQICREKVGEKLCEKIINIVEVMNRHEYLPKMPTQSEVDNVFDTGLRDVQPYLYKISFQITDALGTSVTTTMRRLIKDTLAL [chain 3 W110D, chain 3 F112D]",~0.8
10,chain 3 MNCRSEVLEVSVEGRQVEEAMLAVLHTVLLHRSTGKFHYKKEGTDSIGTVGTQDVDCDFIDFTYVRVSSEELDRALRKVVGEFKDALRNSGGDGLGQMSLEFYQKKKSRWPFSDECIPWEVWTVKVHVVALATEQERQICREKVGEKLCEKIINIVEVMNRHEYLPKMPTQSEVDNVFDTGLRDVQPYLYKISFQITDALGTSVTTTMRRLIKDTLAL [chain 3 Y45D],~0.02

# From paper PMC9931213, “Structural basis for ATG9A recruitment to the ULK1 complex in mitophagy initiation” (Science Advances, 2023)
